Data on six molecules can be found in patent US20210292423A1 (published 2021).

Where a chain is given by its changes, count along the chain named.

Assay [1] concerns the target T1, human CD3 (TCR complex) on primary human T cells or Jurkat cells (human, UniProt P07766 23-207).
T1 construct: on the cells it stands in the whole TCR/CD3 complex; also called Jurkat E6-1 (expressing human TCR)
Nature of the assay: flow cytometry, primary human T cells. The protocol:
The binding capacity of the CD3-Fabs was determined by flow cytometry. Primary human T cells were used as target cells. Therefore, peripheral blood mononuclear cells (PBMCs) were isolated from 200 ml peripheral blood of healthy donors treated with EDTA by Ficoll density centrifugation. 15 ml Histopaque (Sigma-Aldrich) was preloaded on a 50 ml Leucosep-Tube (Greiner bio-one). Blood was diluted with autoMACS Rinsing Buffer+1% BSA (Miltenyi Biotec) and loaded on the membrane of a total of ten prepared tubes. Tubes were centrifuged without brake for 10 min at 1000 xg. PBMCs were collected and washed with autoMACS Rinsing Buffer+1% BSA three times. Finally, PBMCs were resuspended in autoMACS Running Buffer (Miltenyi Biotec) for isolation of T lymphocytes by autoMACSpro technology using the Pan T Cell isolation Kit (Miltenyi Biotec) according to manufacturer's instructions. Purity of separated T cells was analyzed by MACSQuant flow cytometry using the human 7-Color Immunophenotyping Kit (Miltenyi Biotec). Isolated T cells were resuspended in Stain Buffer with FBS (BD Pharmingen) and 1E5 cells in 100 μl per well were seeded in 96-well U-bottom suspension culture plates (Greiner bio-one). Fab antibodies were diluted 1:3 in serial in PBS (Invitrogen) and 5 μl each were added to the cells at a final maximum concentration of 30000 ng/ml. The assay was incubated for 45 min at 4° C. Cells were washed twice with Stain Buffer with FBS and 1 μg secondary antibody Goat F(ab′)2 Anti-Human kappa-FITC (Beckman Coulter, #732621) per well was added in 100 μl Stain Buffer with FBS per well. The assay was incubated for 20 min at 4° C. and washed twice afterwards. Cells were resuspended in 150 μl Stain Buffer with FBS per well and were measured using the MACSQuant (Miltenyi Biotec) or LSRII (BD) flow cytometer. Further data analyses were performed using the FlowJo software (Tree Star, Inc.). Read out was percentage of cells positive for antibody binding. Cells treated only with the secondary but no primary antibody were used to set the gates. EC50 Curves were calculated by XLfit (Algorithm 205), EC50 values were calculated as inflection point of the slope (data are shown in table 6).

In assay [2] the target is T2, human CD3ε/δ-Fc fusion protein (soluble recombinant CD3ε/δ complex) (human, UniProt P04234 22-105).
T2 construct: also called huCD3ε/δ; huCD3; not shown: hinge, CH2, CH3 of human IgG with tag
T2 sequence (chain, as listed by the source mutant, chain 1 of 2): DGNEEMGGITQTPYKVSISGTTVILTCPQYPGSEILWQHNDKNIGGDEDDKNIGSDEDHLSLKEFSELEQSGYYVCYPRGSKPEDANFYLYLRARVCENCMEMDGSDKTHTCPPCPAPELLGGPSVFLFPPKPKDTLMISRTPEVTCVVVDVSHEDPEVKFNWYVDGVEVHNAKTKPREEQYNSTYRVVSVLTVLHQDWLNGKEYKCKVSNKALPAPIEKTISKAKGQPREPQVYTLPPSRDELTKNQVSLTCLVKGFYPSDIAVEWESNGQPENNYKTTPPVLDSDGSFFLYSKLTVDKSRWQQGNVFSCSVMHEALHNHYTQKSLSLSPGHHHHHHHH
T2 sequence (P04234 22-105, stated change not applied, chain 2 of 2): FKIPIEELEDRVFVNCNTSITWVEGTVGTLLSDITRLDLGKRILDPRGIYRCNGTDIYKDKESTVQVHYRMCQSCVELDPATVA
Description: SPR Biacore, CD3εδ-Fc captured, Fab analyte. The protocol: (§1) Binding affinities of anti-CD3 binding Fabs or CODV-Fabs were measured by surface plasmon resonance (SPR) using a Biacore3000 instrument (GE Healthcare). Assay buffer was HBS-EP (BR-1001-88, GE Healthcare). Capture of CD3ε/δ-Fc fusion proteins was achieved using the human antibody capture kit (GE Healthcare). […] The CD3εδ-Fc fusions proteins were captured at 10 μl/min to approx. 70 RU to yield Rmax values of 30 RU. Binding kinetics with the anti-CD3 Fabs or CODV-Fabs was measured at 30 μl/min for 240 sec. and 600 sec. for association and dissociation phase, respectively. Twofold dilutions of Fabs from 3 to 400 nM in assay buffer were used. All Fab concentrations were run in duplicate together with duplicate buffer blanks for double referencing. Regeneration of the capture surface was performed with a 1 min injection of 3M MgCl2 solution at 30 μl/min. For data analysis the BIAevaluation software v.4.1 (GE Healthcare) was used. Data were fit globally using a 1:1 Langmuir model with mass transfer.
Background: SPR reads the build-up and loss of mass on a sensor chip optically.

In assay [3] the target is recombinant huCD3ε/γ protein with Fc-tag (PB01225) (human, UniProt P07766 23-126; P09693 23-116). Description: SPR, CD3-Fc captured, Fab 100 nM. On the procedure: (§2) Binding was tested by SPR using a BIAcore3000 instrument run with HBS-EP buffer. Recombinant huCD3 proteins (ε/δ (PB01226), ε/γ (PB01225)) were captured at 10 μl/min via Fc-tag by anti-human Fc capture antibody MAB1302 (Millipore) immobilized on a CM5 sensor chip. Anti-CD3 Fabs were used as analytes at 100 nM with association and dissociation times of 240 sec and 300 sec, respectively at 30 μl/min. After each cycle the surfaces were regenerated by a 2 min pulse of 10 mM glycine buffer pH2.5.

Assay [4] deals with T2, human CD3ε/δ-Fc fusion protein (soluble …). Description: SPR, CD3-Fc captured, Fab 100 nM. The protocol:
as §2

The target in assay [5] is T3, human CD3δ expressed alone on HEK293F cells (human, UniProt P04234 22-171).
T3 construct: entry includes the signal peptide; also called huCD3δ
T3 sequence (P04234 22-171 limits assumed, stated change not applied): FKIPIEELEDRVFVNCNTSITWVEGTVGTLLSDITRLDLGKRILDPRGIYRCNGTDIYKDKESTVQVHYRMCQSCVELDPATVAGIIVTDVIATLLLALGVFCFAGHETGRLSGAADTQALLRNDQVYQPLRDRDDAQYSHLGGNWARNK
Nature of the assay: flow cytometry, HEK293F transfected with huCD3δ. On the procedure:
(§3) To analyze binding of antibodies to human CD3ε and human CD3δ expressed on the surface of cells, HEK293F cells were transfected with both constructs either alone or in co-transfection and signals were measured by flow cytometry. For transfection procedure FuGENE HD Transfection Reagent (Promega, #E2311) was used according to manufacturer's protocol.
Cells were incubated on a shaker at 37° C. and 5% CO2. At day one to three after transfection cells were harvested and binding of antibodies was analyzed by flow cytometry.
(§4) Antibodies for staining were seeded at 1 μg in 50 μl per well Stain Buffer with FBS (BD Pharmingen) in 96-well U-bottom suspension culture plates (Greiner bio-one). Harvested transfected cells were resuspended in Stain Buffer with FBS and were added at 50 μl per well to the antibodies. Cells were incubated at 4° C. in the dark for 30 min and were washed twice. 0.5 μg secondary antibody Goat F(ab′)2 Anti-Human IgG-FITC (Beckman Coulter, #732598) or Goat F(ab′)2 Anti-Human kappa-PE (Southern Biotech, #206209), respectively, in combination with 0.5 μg 7-AAD per well was added in 100 μl Stain Buffer with FBS. Cells were incubated at 4° C. in the dark for 15 min and were washed twice. For measurement, cells were resuspended in 200 μl Stain Buffer with FBS. Cells were measured using the MACSQuant (Miltenyi Biotec) or LSRII (BD) flow cytometer, respectively. Further data analyses were performed using the FlowJo software (Tree Star, Inc.).

In assay [6] the target is T4, human CD3ε and CD3δ co-expressed on HEK293F cells (human, UniProt P07766 23-207; P04234 22-171).
T4 construct: also called huCD3ε/δ (transfected cells); huCD3e + huCD3d
Description: flow cytometry, transfected HEK293F. The protocol:
as §3, §4
In general terms: A flow cytometer gives signals particle by particle.

In assay [7] the target is T5, human CD3ε expressed alone on HEK293F cells (human, UniProt P07766 23-207).
T5 construct: also called huCD3ε
Nature of the assay: flow cytometry, transfected HEK293F. On the procedure: as §3, §4

Assay [8] has as its target T2, human CD3ε/δ-Fc fusion protein (soluble …). Description: SPR Biacore, Fab. On the procedure:
as §1

B1: 11F9-F8 Fab (Fab, V domains shown)
VH: EVQLVETGGTLVQPGKSLKLTCATSGFTFSNAWMHWVRQSPEKQLEWVAQIKAKSNNYATYYAESVKGRFTISRDDSKTSVYLQLNSLREEDTAIYYCRGTQYGYNPFDYWGQGVMVTVSS
VL: DVVLTQTPVSLSVSLGGQVSISCRSSQSLVHNNGNTYLSWSLQKPGQSPQVLIYKVSNRFSGISNRFSGSGSGTDFTLKISRVEPDDLGVYYCGQGAHYPFTFGSGTKLEIK
notes: also called 11F9-F8-huFab
For B1, it took 11.6 nM to reach a half-maximal effect in assay [1] (EC50). In assay [2], the dissociation constant Kd – broadly, the constant that tells how readily two partners part at equilibrium – was determined as 5.2 nM. Further, the off-rate (koff) (in general, the first-order rate constant of dissociation) in assay [2] came to 0.0004 s⁻¹. Moreover, in assay [2], the kon (commonly the second-order rate constant of association) amounted to 77000 M⁻¹ s⁻¹. In addition, the “RU of Fab binding at 100 nM” value in assay [3] stood at 7 RU; in assay [4] it was 10 RU. For the same molecule, the binding result in assay [5] is “no binding (tested: <20% of binding of huCD3e + huCD3d)”. For the same molecule, the figures for the “% antibody positive transfected cells” value in assay [6] and in assay [7] were 96% and 97%, respectively.

B2: 12G3-E8 Fab (Fab, V domains shown)
VH: EVRVVETGGSLVQPGKSLKLTCATSGFTFSLAWMHWVRQSPEKKLEWVAQIKDKANNYATYYAESVKGRFTISRDDSKRSVYLQMNRLKEEDTAIYYCRGVYYGFSMTPFDYWGQGVMVTVSS
VL: B1 VL with V3A, L4M, S41Y, N65D, T74A, A97T, H98Q, S105A, I111L
Turning to B2, in assay [1], the EC50 (as a rule, the concentration that produces a half-maximal response) came out at 4.4 nM. Further, in assay [2], the Kd was 9.3 nM, the dissociation rate constant (koff) was determined as 0.0011 s⁻¹ and the kon stood at 110000 M⁻¹ s⁻¹. Also, in assay [3], the “RU of Fab binding at 100 nM” value is 7 RU. The “RU of Fab binding at 100 nM” value in assay [4] came to 10 RU. Also, the binding result in assay [5] was “no binding (tested: <20% of binding of huCD3e + huCD3d)”. For the same molecule, the “% antibody positive transfected cells” value in assay [6] was 96.7%. Moreover, the “% antibody positive transfected cells” value in assay [7] was 96.3%.

B3: 20E5-F10 Fab (Fab, V domains shown)
VH: EVQLVETGENLVQPGKSLRLTCATSGFSFSNAWMHWIRQSPEKQLEWVAQIKDKSNNYATYYAESVNGRFTISRDDSKSSIYLHMDNLKEEDSAIYYCRYVHYGVRFFYTMDVWGQGTSVTVSS
VL: B1 VL with L4M, G17D, S25P, S41Y, Q50H, V51P, N65D, A97T, H98Q
notes: also called 20E5-F10-huFab
As for B3, the concentration for a half-maximal effect (EC50) in assay [1] was determined as 8.2 nM. In assay [2], the dissociation constant Kd came out at 4.3 nM, the koff amounted to 0.00043 s⁻¹ and the kon worked out at 99000 M⁻¹ s⁻¹. Further, the “RU of Fab binding at 100 nM” value in assay [3] worked out at 8 RU. Besides, the “RU of Fab binding at 100 nM” value in assay [4] was found to be 11 RU. Besides, the binding result in assay [5] is given as “no binding (tested: <20% of binding of huCD3e + huCD3d)”. Besides, the “% antibody positive transfected cells” value in assay [6] came out at 95.3%. Moreover, in assay [7], the “% antibody positive transfected cells” value is 96.7%.

B4: 10E6-G6 Fab (Fab, V domains shown)
VH: B1 VH with T10G, P14S, F29V, S30T, A59E, T79S, L85M, R89K
VL: B1 VL with L4M, T7S, N35Y, S41Y, L52F, N65D, V83I, A97T
Regarding B4, the concentration giving a half-maximal response (EC50) in assay [1] worked out at 4.7 nM. Further, the equilibrium dissociation constant (Kd) in assay [2] stood at 14 nM. The koff in assay [2] was found to be 0.002 s⁻¹. For the same molecule, the on-rate (kon) in assay [2] amounted to 140000 M⁻¹ s⁻¹. Besides, the figures for the “RU of Fab binding at 100 nM” value in assay [3] and in assay [4] were 8 RU and 11 RU, respectively. Moreover, in assay [5], the binding result was “no binding (tested: <20% of binding of huCD3e + huCD3d)”. Moreover, the “% antibody positive transfected cells” value in assay [6] is 93.3%; in assay [7], 96.3%.

B5: 18F5-H10 Fab (Fab, V domains shown)
VH: EVQVVETGGSLVQPGKSLKLTCATSGFTFTNAWMHWVRRSPEKQLEWVAQIKDKSNNYATYYAESVKGRFTISRDDSKSSIYLQMNSLKEEDTAIYYCRYVHYRFAYALDAWGRGTSVSVSS
VL: DVLMTQTPVSLSVSLGGQVSISCRSSQSLVHTNGNTYLSWYLQKPGQSPQLLIYKVSNRLSGISDRFSGSGSGTDFTLKISRVEPDDLGVYYCGQGTHYPFTFGAGTKLELKR
notes: also called BDX-18F5-H10
The molecule B5 registered a concentration for a half-maximal effect (EC50) in assay [1] of 4.1 nM. Also, the equilibrium dissociation constant (Kd) in assay [2] is 0.89 nM; in assay [8], 1 nM. In addition, the koff in assay [2] and in assay [8] was 0.00018 s⁻¹ throughout. Also, the kon in assay [2] and in assay [8] was 200000 M⁻¹ s⁻¹ in each case. The “RU of Fab binding at 100 nM” value was found to be 7 RU in assay [3] and 13 RU in assay [4]. Also, the binding result in assay [5] is recorded as “no binding (tested: <20% of binding of huCD3e + huCD3d)”. Also, the “% antibody positive transfected cells” value is 70.4% in assay [6] and 70.6% in assay [7].

B6: 20G6-F3 Fab (Fab, V domains shown)
VH: EVQLVETGGSLVQPGKSLKLTCATSGFTFTKAWMHWVRQSPEKQLEWVAQIKDKSNSYATYYAESVKGRFTISRDDSKSTIYLQMNSLKEEDTAIYYCRGVYYALSPFDYWGQGVMVTVSS
VL: B5 VL with L3V, T32N, L51S, L60F, I63F, E84D, H98Q, A105S, L111I
notes: also called BDW-20G6-F3
In the case of B6, the EC50 in assay [1] came out at 14 nM. Besides, the Kd in assay [2] was found to be 7.7 nM; in assay [8], 8 nM. Also, the koff in assay [2] and in assay [8] was 0.00027 s⁻¹ throughout. In addition, the kon in assay [2] and in assay [8] was 35000 M⁻¹ s⁻¹ throughout. Besides, the “RU of Fab binding at 100 nM” value in assay [3] came out at 4 RU; in assay [4], 7 RU. Also, the binding result in assay [5] is recorded as “no binding (tested: <20% of binding of huCD3e + huCD3d)”. Besides, the results for the “% antibody positive transfected cells” value in assay [6] and in assay [7] were 67.4% and 68.6%, respectively.
